According to patent US20120088313A1 (JAPAN TOBACCO, published 2012):

Molecular target: T1, BioEase tag-fused SITH-1 protein (human herpes virus 6 (HHV-6), biotinylated in vivo (E. coli) within the N-terminal BioEase tag; residue not stated)
T1 construct: Fusion of the BioEase biotinylation tag (N-terminal) with HHV-6 SITH-1, expressed in E. coli BL21 (DE3); Used as a crude extract on blots, or captured on a TM2 plate; also called BioEase-SITH-1 fusion protein; biotinylated SITH-1
T1 chain: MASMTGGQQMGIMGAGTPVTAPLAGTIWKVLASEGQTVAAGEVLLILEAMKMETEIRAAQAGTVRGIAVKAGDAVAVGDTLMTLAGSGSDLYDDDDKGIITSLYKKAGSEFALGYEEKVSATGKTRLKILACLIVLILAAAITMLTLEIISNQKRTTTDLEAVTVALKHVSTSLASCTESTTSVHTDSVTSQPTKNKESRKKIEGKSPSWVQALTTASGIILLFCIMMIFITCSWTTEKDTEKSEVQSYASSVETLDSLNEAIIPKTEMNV
Assay: capture of crude extract on TM2-coated microplate (binding through biotin)

B1: tamavidin 2 (other)
chain: MSDVQSSLTGTWYNELNSKMELTANKDGTLTGKYLSKVGDVYVPYPLSGRYNLQPPAGQGVALGWAVSWENSKIHSATTWSGQFFSESSPVILTQWLLSSSTARGDVWESTLVGNDSFTKTAPTEQQIAHAQLHCRAPRLK
notes: Purified TM2 immobilized on a New ELISA microplate; also called TM2; purified TM2
  binding result: binds
